What was measured:
[1] = biological target: paused elongation complex PEC-161 (E. coli RNAP stalled at C161 of the Bsu-GTR template) (E. coli); assay: single-molecule fluorescence colocalisation
[2] = biological target: paused elongation complex PEC-225 (E. coli RNAP stalled at U225 of the Bsu-GTR template) (E. coli); assay: single-molecule fluorescence colocalisation

paused elongation complex PEC-161 (E. coli RNAP stalled at C161 of the Bsu-GTR template) (E. coli), sequence (A1AGI6 whole entry, chain 1 of 4): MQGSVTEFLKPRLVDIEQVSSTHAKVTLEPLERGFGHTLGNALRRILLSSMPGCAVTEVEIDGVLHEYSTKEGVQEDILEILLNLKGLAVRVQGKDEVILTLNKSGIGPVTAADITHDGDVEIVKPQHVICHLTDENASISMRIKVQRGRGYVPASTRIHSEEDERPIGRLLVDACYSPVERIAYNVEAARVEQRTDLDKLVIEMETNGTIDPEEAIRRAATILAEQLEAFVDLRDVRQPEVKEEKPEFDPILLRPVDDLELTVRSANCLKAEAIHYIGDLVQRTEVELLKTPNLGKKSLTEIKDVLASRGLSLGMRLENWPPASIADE
paused elongation complex PEC-161 (E. coli RNAP stalled at C161 of the Bsu-GTR template) (E. coli), sequence (A1AIF9 whole entry, chain 2 of 4, further chain): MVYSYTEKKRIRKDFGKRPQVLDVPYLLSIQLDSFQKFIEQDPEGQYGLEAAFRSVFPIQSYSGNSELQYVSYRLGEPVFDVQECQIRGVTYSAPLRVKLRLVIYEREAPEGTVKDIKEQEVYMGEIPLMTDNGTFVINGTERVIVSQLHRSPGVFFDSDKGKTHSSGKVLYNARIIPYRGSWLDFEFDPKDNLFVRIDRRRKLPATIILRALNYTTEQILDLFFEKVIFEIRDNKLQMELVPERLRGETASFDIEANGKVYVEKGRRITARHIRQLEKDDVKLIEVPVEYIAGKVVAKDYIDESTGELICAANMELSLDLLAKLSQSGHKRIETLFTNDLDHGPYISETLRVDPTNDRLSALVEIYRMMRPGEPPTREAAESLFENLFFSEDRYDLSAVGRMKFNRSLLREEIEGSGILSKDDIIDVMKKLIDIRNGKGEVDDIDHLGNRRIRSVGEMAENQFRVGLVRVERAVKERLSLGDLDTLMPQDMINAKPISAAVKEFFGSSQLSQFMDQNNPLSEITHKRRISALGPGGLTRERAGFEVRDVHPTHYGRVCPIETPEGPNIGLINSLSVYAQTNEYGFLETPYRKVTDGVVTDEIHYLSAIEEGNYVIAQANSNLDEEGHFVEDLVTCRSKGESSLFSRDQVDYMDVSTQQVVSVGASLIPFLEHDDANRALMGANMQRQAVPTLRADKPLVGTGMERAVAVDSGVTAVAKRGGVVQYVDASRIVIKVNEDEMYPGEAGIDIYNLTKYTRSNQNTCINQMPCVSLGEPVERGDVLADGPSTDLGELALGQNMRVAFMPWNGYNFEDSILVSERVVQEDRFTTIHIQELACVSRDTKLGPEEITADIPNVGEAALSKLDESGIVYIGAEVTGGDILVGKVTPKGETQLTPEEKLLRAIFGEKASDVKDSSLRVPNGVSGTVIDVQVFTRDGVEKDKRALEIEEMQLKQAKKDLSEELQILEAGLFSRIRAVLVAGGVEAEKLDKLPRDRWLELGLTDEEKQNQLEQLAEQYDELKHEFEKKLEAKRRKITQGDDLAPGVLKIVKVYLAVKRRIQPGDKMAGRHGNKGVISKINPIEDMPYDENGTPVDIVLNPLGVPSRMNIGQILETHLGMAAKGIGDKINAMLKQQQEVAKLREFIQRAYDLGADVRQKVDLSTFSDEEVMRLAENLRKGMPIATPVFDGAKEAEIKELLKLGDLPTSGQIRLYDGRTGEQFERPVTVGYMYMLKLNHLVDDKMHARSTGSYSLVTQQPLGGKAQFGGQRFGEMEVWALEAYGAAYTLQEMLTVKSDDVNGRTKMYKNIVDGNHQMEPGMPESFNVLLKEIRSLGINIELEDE
paused elongation complex PEC-161 (E. coli RNAP stalled at C161 of the Bsu-GTR template) (E. coli), sequence (A7ZUK2 whole entry, chain 3 of 4, further chain): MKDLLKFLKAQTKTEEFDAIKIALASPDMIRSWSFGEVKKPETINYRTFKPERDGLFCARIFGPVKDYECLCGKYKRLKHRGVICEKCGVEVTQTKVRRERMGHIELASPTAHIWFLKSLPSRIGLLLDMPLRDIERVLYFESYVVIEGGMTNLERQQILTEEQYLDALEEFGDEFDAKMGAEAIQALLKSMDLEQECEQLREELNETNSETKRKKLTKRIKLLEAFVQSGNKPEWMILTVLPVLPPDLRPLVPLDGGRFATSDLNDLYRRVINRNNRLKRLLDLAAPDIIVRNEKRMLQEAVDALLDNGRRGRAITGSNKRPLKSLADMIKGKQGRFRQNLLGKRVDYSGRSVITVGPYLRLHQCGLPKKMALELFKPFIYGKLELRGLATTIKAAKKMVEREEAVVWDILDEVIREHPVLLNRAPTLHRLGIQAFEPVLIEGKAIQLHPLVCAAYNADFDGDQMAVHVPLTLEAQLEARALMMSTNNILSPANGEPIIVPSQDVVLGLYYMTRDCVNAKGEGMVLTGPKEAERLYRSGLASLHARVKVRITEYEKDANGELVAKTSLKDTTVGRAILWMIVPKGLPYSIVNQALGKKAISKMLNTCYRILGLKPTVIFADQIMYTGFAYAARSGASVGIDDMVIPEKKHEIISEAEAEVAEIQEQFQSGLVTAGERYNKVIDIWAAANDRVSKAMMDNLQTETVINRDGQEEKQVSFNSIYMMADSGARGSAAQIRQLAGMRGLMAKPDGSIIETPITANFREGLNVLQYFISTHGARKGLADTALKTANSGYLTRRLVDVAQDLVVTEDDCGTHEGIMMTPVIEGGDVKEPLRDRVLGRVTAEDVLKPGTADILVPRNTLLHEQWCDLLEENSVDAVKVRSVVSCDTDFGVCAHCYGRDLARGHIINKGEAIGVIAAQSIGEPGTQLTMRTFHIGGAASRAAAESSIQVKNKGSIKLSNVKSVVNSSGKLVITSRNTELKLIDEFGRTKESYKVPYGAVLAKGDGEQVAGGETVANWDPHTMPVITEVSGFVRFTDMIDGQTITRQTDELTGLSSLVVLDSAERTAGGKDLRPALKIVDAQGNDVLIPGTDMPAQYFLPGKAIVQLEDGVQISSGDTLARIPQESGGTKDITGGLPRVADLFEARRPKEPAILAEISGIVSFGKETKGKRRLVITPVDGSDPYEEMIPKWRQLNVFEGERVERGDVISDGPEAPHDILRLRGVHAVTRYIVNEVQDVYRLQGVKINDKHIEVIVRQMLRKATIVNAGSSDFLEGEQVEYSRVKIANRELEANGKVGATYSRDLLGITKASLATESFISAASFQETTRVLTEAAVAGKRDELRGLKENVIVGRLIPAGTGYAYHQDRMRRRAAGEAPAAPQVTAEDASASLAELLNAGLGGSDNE
paused elongation complex PEC-161 (E. coli RNAP stalled at C161 of the Bsu-GTR template) (E. coli), sequence (A1AHI0 2-91 limits assumed, chain 4 of 4, further chain): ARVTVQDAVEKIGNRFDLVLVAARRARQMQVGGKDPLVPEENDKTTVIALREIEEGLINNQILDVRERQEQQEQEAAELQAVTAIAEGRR

- koff [1]: 0.81 s⁻¹
- kon [1]: 1.12e+07 M⁻¹ s⁻¹
- kon, fast (fraction 45%) [1]: 2.34e+07 M⁻¹ s⁻¹
- kon, slow (fraction 55%) [1]: 2.29e+06 M⁻¹ s⁻¹
- koff [2]: 0.47 s⁻¹
- kon [2]: 4.16e+06 M⁻¹ s⁻¹
- kon, fast (fraction 50%) [2]: 7.26e+06 M⁻¹ s⁻¹
- kon, slow (fraction 50%) [2]: 1.38e+06 M⁻¹ s⁻¹
Substance: NusA-Cy5 (from UniProt P0AFF6 1-495) (natural protein)

— article PMC12154632
